Tests used:
[1] = biological target: T1, cELF-1 (Gallus gallus); assay: EMSA; anti-ELF-1 antibody interferes and supershifts; room temperature; conditions: tags: none (TNT reticulocyte lysate); label: 32P
T1 chain: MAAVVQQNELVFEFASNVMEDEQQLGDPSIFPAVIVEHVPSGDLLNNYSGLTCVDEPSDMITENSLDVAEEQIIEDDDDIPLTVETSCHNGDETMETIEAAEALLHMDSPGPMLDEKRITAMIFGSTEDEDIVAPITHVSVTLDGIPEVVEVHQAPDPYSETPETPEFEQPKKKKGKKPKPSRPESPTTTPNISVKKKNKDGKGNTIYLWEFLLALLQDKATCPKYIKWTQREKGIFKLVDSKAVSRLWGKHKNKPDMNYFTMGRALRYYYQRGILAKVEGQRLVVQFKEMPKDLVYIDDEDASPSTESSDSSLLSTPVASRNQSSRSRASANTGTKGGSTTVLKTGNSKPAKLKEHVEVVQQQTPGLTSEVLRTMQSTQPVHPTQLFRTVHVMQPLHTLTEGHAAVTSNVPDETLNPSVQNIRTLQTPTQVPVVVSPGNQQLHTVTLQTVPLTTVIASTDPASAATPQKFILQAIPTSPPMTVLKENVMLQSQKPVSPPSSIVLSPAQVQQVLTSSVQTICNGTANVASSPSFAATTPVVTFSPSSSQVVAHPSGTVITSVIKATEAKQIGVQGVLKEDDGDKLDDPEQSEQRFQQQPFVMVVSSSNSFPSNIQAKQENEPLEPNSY
Procedure: The ability of in vitro translated human ELF-1 and cELF-1 to bind to the same Tie2 Ets sites was also examined. As is shown in FIG. 8A, both human and chicken ELF-1 form similar DNA-protein complexes with the Tie2 Ets sites (lane 2 and 3). The ability of an ELF-1 specific antibody to interfere with the formation of these complexes was also tested. This antibody was able to interfere with complex formation of both human and chicken ELF-1. […] Because several Ets factors may potentially bind to the Tie2 Ets site in vivo in the developing chicken we performed gel shift assays with the Tie2 Ets probe and cell extracts from the chicken CAM. As is shown in FIG. 8B, lane 3, a similar size complex is formed compared to the in vitro translated cELF-1.
(§1) Briefly, 20-μL samples containing 2 μL of in vitro-translated products or cell extracts were incubated with a solution containing ³²P-labeleddouble-stranded probes (30 000 cpm). Samples were incubated in the presence or absence of increasing amounts of cold competitor (5 or 50 ng) for 15 to 20 minutes at room temperature and run on a 4% polyacrylamide gel (acrylamide-bisacrylamide, 29:1) containing a buffer of 0.25×TBE (22.5 mmol/L Tris borate and 0.5 mmol/L EDTA).

[2] = biological target: T1, cELF-1; assay: competition; 5 or 50 ng cold competitor vs Tie1 P2 probe; unable to compete; conditions: tags: none (TNT reticulocyte lysate)
Procedure: (§2) The ability of cELF-1 to bind to conserved Ets sites in the Tie1 promoter was examined. There are two Ets site doublets, P1 and P2 that are highly conserved in this promoter. The ability of cELF-1 to bind to these Ets sites was tested. As is shown in FIG. 8C, cELF-1 binds well to both of these Ets sites. […] When both of the Ets site were mutated (Mut 1,2) the oligonucleotides were unable to compete for binding. When the first Ets site was mutated, Mut 1, it competed only weakly with binding of cELF-1 to the Tie1 P2 probe.
as §1

[3] = biological target: T1, cELF-1; assay: EMSA; binds well; wild type cold oligo competes; conditions: tags: none (TNT reticulocyte lysate); label: 32P
Procedure: as §2, §1

[4] = biological target: T1, cELF-1; assay: EMSA; binds well; room temperature; conditions: tags: none (TNT reticulocyte lysate); label: 32P
Procedure: as §2, §1

[5] = biological target: T1, cELF-1; assay: competition; 5 or 50 ng cold competitor vs Tie1 P2 probe; competes as well as wild type; conditions: tags: none (TNT reticulocyte lysate)
Procedure: as §2, §1

B1: Tie2 promoter Ets oligonucleotide (dsDNA)
DNA 1: TGCAAAGGAAACAGGAAAAAGGAACTTAAC
DNA 2: GTTAAGTTCCTTTTTCCTGTTTCCTTTGCA
binding result [1]: binds

B2: Tie1 P2 Mut1,2 (dsDNA)
DNA 1: CCATCATTTAATCTTAATCCCCAG
DNA 2: CTGGGGATTAAGATTAAATGATGG
binding result [2]: no binding

B3: Tie1 P2 (dsDNA)
DNA 1: CCATCATTTCCTCTTCCTCCCCAG
DNA 2: CTGGGGAGGAAGAGGAAATGATGG
binding result [3]: binds

B4: Tie1 P1 (dsDNA)
DNA 1: ACTGGCTTCCTCCCTTTCCTGTCTC
DNA 2: GAGACAGGAAAGGGAGGAAGCCAGT
binding result [4]: binds

B5: Tie1 P2 Mut2 (dsDNA)
DNA 1: CCATCATTTCCTCTTAATCCCCAG
DNA 2: CTGGGGATTAAGAGGAAATGATGG
binding result [5]: binds
